Results taken from patent US8796209B2, “Compositions and methods related to anti-FGF agents” (The Regents of the University of California, priority 2005, dated 2014).
Residue numbers refer to the chain shown, from its start.

B1: 4xE: FGF-1 mutant, Lys127/Lys128/Lys133/Arg134 simultaneously to Glu (protein)
chain: FNLPPGNYKKPKLLYCSNGGHFLRILPDGTVDGTRDRSDQHIQLQLSAESVGEVYIKSTETGQYLAMDTDGLLYGSQTPNEECLFLERLEENHYNTYISKKHAEKNWFVGLEENGSCEEGPRTHYGQKAILFLPLPVSSD
B2: 3xA: FGF-1 mutant, three residues in the FGFR binding site (Glu102/Tyr109/Asn110) to Ala (protein)
chain: B1 chain with E87A, Y94A, N95A, E112K, E113K, E118K, E119R

Assays:
M21 human melanoma cells = test: Chemoresistance: caspases 3/7 activity with etoposide; assay type: cell-based; conditions: in presence of wt FGF
Description: M21 human melanoma cells were cultured in DMEM with 1% FBS for 48 h, and then treated with etoposide (0.1-100 μM) in the presence or absence of wt or mutant FGF for 48 h.
Cells were plated on well of 96-well tissue culture plates and serum-starved for 48-72 h in DMEM supplemented with 0-1% FBS. Then cells were treated with etoposide (up to 100 μM) and wt or mutant FGF for additional 24-48 h. Cell viability was determined using CellTiter 96 MTS assay (Promega) and caspases 3/7 activity was determined by using Caspase-Glo 3/7 assay kit (Promega). FIGS. 10 and 11.

FRS2α = test: FRS2 phosphorylation, western blot; assay type: cell-based; conditions: mouse fibroblasts
Description: The same cell lysates as described above were analyzed by western blotting with anti-phospho FRS2 or anti-FRS2, where; 1: Wild type; 2: R50E; 3: 4xE; 4: 3xA; 5: None; and 6: FBS.
This experiment tested how the FGF1 mutations affect phosphorylation of FRS2α.

[1] = system: Human microvascular endothelial (HMVE) cells; test: Tube formation by endothelial cells on Matrigel; assay type: cell-based; conditions: 24 h
Description: Digital images were taken by using a fluorescent microscope and analyzed by using ImageJ, using human microvascular endothelial (HMVE) cells added to the matrix-coated wells of 96-well plates at 2×10^4 cells/well in medium M-131 plus 0.1% hydrocortisone and 0.1% FBS for. Cells were incubated for 24 h in the presence of wt or mutant FGF. To enhance images, calcein AM was added to the medium.
Wells of 96-well FluoroNunc black plates were coated with 50 μl of matrigel basement membrane matrix (BD Bioscience) and allowed to gel at 37° C. for 30 min. Endothelial cells growing on the tissue culture plastic were trypsinized, washed, and added to the matrix-coated wells at 2×10^4 cells/well. Plating was performed in medium M-131 plus 0.1% hydrocortisone and 0.1% FBS for Human microvascular endothelial (HMVE) cells. Cells were incubated for 24 h in the presence of wt or mutant FGF. To enhance images, calcein AM (Invitrogen) was added to the medium (10 μg/ml) and incubated for 15 min at 37° C. Digital images were taken by using a fluorescent microscope and analyzed by using ImageJ. (FIGS. 9A and 9B).

Balb 3T3 cells [2] = test: Chemotaxis assay (Transwell); assay type: cell-based, mouse; conditions: for effect of the mutation on FGF-1-induced chemotaxis: 5 ng/ml, 24 h; for Chemotaxis: phenotype of FGF-1 mutants, Table 2
Description: The bottom of the polycarbonate filter of the Transwell apparatus was coated with 10 μg/ml of fibronectin. The lower chamber contained 600 μI of serum-free DMEM containing 5 ng/ml wild-type or mutants FGF-1. Balb 3T3 cells (10^5 cells/filter) were plated on filter and incubated 37° C. for 24 h, and cells were stained with crystal violet. Cells that migrated to the bottom side of the membrane were counted. Results are expressed as means of the number of migrated cells in 2 fields.
A polycarbonate filter of 8 μm pore size of the Transwell insert was coated with 10 μg/ml of fibronectin (Sigma) overnight at 4° C. After washing, the insert was placed into a 24-well cell culture plate, and the lower portion of the plate was filled with 600 μl of serum-free DMEM containing 5 ng/ml wild type or mutant FGF-1. Balb 3T3 cells (10^5 cells/filter) were plated on filter and incubated 37° C. for 24 h, and cells were visualized by crystal violet staining (0.5% crystal violet in 50 mM Borate, pH 9.0, and 2% ethanol). The uncoated side of each filter was wiped with a cotton swab to remove cells that had not migrated through the filter. Migrated cells were counted from the digital images of stained cells. Determining the mean number of cells counted per field. Results are expressed as means±SD of the relative cell number with non-stimulated cells set as 100).

Balb 3T3 cells [3] = test: Scratch wound healing assay; assay type: cell-based, mouse; conditions: for Wound healing: phenotype of FGF-1 mutants, Table 2; for effect on migration of Balb3T3 cells in scratch wound healing assays: with 5 μg/ml heparin, 24 h
Description: Confluent serum-starved Balb 3T3 cells were scratched. After washing with serum-free medium, cells were incubated in DMEM containing 5 μg/ml heparin and 5 ng/ml wild-type or mutant FGF-1s for 24 h at 37° C. Controls contain medium alone (none) or medium containing 10% fetal calf serum (FCS).
Balb 3T3 cells were plated into 6-well cell culture plate. Cells were allowed to grow in DMEM containing 10% fetal calf serum for overnight, and then cells were washed with serum-free medium and starved for 24 h. A scratch was made across the cell layer using a pipette tip. After washing with serum-free medium twice, DMEM containing 10 ng/ml wild type or mutant FGF-1 together with 5 μg/ml heparin were added to cells. Plates were photographed at 0, 6, 12, and 24 h.

FGFR1 D2D3 fragment = target: T1, FGFR1 D2D3 fragment (Homo sapiens, UniProt P11362); test: Competition with biotinylated FGF-1 for immobilized FGF receptor D2D3 fragments; assay type: binding; conditions: for effect of the mutation on binding of the FGFR1 D2D3 fragment: competition with 1 μg/ml biotinylated FGF-1; for FGFR binding: phenotype of FGF-1 mutants, Table 2
T1 construct: A DNA fragment encoding amino acid residues 140 to 365 of the immunoglobulin-like domains D2 and D3 of FGFR; made in house
T1 sequence (P11362 140-365): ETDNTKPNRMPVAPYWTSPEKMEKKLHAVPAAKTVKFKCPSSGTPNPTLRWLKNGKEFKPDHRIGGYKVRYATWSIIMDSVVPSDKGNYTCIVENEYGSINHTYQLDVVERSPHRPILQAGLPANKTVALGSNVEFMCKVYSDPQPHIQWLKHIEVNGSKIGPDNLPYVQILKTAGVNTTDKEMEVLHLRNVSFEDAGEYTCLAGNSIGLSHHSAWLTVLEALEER
Description: One μg/mi biotinylated FGF-1 and increasing concentrations of unlabelled FGF-1 or FGF-1 mutants were incubated for 1 h at RT with immobilized FGF receptor D2D3 fragments. Then the plate was washed and the bound biotinylated FGF were measured using an avidin conjugated HRP. Unlabeled wild-type (diamond) FGF-1, the R50E (square), 4xE (circle), and 3xA (triangle) FGF-1 mutants were used.
A DNA fragment encoding amino acid residues 140 to 365 of the immunoglobulin-like domains D2 and D3 of FGFR was amplified by PCR with the full length human FGFR1 cDNA in the pcDNA3 (gift from Ann Hanneken, the Scripps Research Institute, La Jolla, Calif.) as a template. A Bam HI restriction site was introduced at the 5′ end, Xho I site at the 3′ end of the cDNA fragment with the following primers: 5′-[…]-3′ (SEQ ID NO:5), 5′-[…]-3′ (SEQ ID NO:6). The resulting cDNA fragment was subcloned into the Bam HI/Xho I sites of the vector pET21a, and transformed into BL21 (DE3).
The protein was expressed as an insoluble protein, refolded as described (Plotnikov et al., 2000). The refolded protein was purified by affinity chromatography using the FGF-1 coupled to CNBr-activated Sepharose (Amersham Pharmacia Biotech) as an affinity matrix. FGF-1-Sepharose was incubated with crude refolded proteins 16 h at 4° C. After binding, the affinity matrix was washed with buffer containing 100 mM NaCl and 50 mM Tris (pH 7.4); and eluted with 1.2M NaCl, and 50 mM Tris (pH 7.4).

Molecule | effect on caspase activation (M21 human melanoma cells) | FRS2α phosphorylation (FRS2α) | tube formation by endothelial cells on matrigel [1] | effect of the mutation on FGF-1-induced chemotaxis (Balb 3T3 cells [2]) | Chemotaxis (Balb 3T3 cells [2]) | Wound healing (Balb 3T3 cells [3]) | effect on migration of Balb3T3 cells in scratch wound healing assays (Balb 3T3 cells [3]) | effect of the mutation on binding of the FGFR1 D2D3 fragment (FGFR1 D2D3 fragment) | FGFR binding (FGFR1 D2D3 fragment)
R50E: FGF-1 mutant with the Arg-50 to Glu (R50E) mutation | blocked inhibition of caspase activation | abolished | block tube formation | blocked | Low | Low | effectively blocked | did not block | Normal
Wild type: human FGF-1 (acidic FGF), wild type, expressed in E. coli | – | induced | enhanced | – | Normal | Normal | – | – | Normal
B1 | – | abolished | – | blocked | Low | Low | effectively blocked | did not block | Normal
B2 | – | abolished | – | – | Low | Low | effectively blocked | effectively blocked | Low
